The text below walks through data of patent US20230279105A1 (SINGLE CELL TECHNOLOGY, published 2023).

Positions count from the first letter of the chain named.

This test concerns the target T1, Human TIM-3 Human Fc tagged protein (human, fluorescently labeled with HiLyte Fluor 555 (sites not given)).
T1 construct: Bought construct; also called TIM-3 protein tagged with human Fc; ACROBiosystems catalog no: TM3-H5258
The experiment in a line: capture slide probed with labeled TIM-3-Fc.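 Note: IgG from single CD138-enriched plasma cells, isolated from lymphocytes, immobilized on a derivatized glass slide.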

B1: SCT-Fa012 (antibody, V domains shown)
VH: EVKLVESEGGLVQPGSSMKLSCTASGFTFSDYYMAWVRQVPEKGLEWVAHINFDGSGTYYLDSLKSRFIISRDNAKNILYLQLSSLKSEDTATYYCARLYDGSHDYWGQGTTLTVSS
VL: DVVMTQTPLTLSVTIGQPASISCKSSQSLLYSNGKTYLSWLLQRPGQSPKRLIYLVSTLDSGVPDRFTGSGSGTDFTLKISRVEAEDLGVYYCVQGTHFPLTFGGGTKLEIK
notes: murine IgG
As for B1, the binding result was “binds”.

B2: SCT-Fa019 (antibody, V domains shown)
VH: B1 VH with A35S, H50N, L83M, K87R, T111S, T112A
VL: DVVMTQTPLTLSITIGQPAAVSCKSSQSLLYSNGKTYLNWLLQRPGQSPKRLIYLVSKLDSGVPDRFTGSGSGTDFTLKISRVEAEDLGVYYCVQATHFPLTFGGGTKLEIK
notes: murine IgG
Consider B2, for which the binding result is listed as “binds”.

B3: SCT-Fa017 (antibody, V domains shown)
VH: B1 VH with H50N, L83M
VL: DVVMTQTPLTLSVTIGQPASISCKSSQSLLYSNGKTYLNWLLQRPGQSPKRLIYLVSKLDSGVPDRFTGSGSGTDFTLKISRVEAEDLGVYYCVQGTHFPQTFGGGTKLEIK
notes: murine IgG
On to B3, for which the binding result is recorded as “binds”.

B4: SCT-Fa010 (antibody, V domains shown)
VH: B1 VH with V48I, H50N, L83M, H104L
VL: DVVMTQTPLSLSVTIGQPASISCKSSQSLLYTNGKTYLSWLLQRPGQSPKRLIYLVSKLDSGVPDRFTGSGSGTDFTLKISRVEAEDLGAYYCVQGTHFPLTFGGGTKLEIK
notes: murine IgG
Turning to B4, the binding result is “binds”.

B5: SCT-Fa013 (antibody, V domains shown)
VH: B1 VH with A92G
VL: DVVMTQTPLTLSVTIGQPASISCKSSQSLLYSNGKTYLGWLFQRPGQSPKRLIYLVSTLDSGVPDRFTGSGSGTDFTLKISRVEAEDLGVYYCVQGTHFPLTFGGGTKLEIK
notes: murine IgG
As for B5, the binding result is on record as “binds”.

B6: SCT-Fa014 (antibody, V domains shown)
VH: B1 VH with A92G
VL: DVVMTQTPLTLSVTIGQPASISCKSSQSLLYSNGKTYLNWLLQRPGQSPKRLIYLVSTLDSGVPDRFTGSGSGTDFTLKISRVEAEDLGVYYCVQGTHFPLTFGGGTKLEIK
notes: murine IgG
With B6, the binding result is recorded as “binds”.

B7: SCT-Fa011 (antibody, V domains shown)
VH: B1 VH
VL: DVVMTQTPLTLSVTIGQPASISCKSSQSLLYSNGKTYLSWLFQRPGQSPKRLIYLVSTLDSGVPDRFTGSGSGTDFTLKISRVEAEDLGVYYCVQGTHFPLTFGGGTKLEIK
notes: murine IgG
On to B7, for which the binding result was “binds”.

B8: SCT-Fa015 (antibody, V domains shown)
VH: B1 VH with A75E, N77S
VL: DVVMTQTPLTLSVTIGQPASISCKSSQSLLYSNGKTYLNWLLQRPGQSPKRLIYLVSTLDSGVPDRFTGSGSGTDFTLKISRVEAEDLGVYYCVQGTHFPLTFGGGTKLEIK
notes: murine IgG
In the case of B8, the binding result was “binds”.

B9: SCT-Fa016 (antibody, V domains shown)
VH: B1 VH with A75T
VL: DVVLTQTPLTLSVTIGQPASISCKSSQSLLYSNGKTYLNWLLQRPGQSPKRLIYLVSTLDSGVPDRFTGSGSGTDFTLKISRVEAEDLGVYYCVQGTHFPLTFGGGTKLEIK
notes: murine IgG
Take B9: the binding result is “binds”.

B10: SCT-Fa107 (antibody, V domains shown)
VH: QVQLKQSGAELVRPGTSVKLSCKASGYTLTDYYINWVKQRPGQGLEWIARIYPGNGNTYYNEKFKGKATLTAEKSSSTVNMQVSSLTSEDSAVYFCARGGSSDRIYYYAMDYWGQGTSVTVSS
VL: DIQMNQSPSSLSASLGDTITITCHASQNINVWLSWYQQKPGNIPKLLIYKASNLHTGVPSRFSGSGSGTGFTLTISSLQPEDIATYYCQQGQSYPLTFGSGTKLEIK
notes: murine IgG
Take B10: the binding result is on record as “binds”.

B11: SCT-Fa103 (antibody, V domains shown)
VH: B10 VH with Y59L, E62A, K65E, K74R, V79A, N80Y, D103V, I105V, Y112F
VL: B10 VL
notes: murine IgG
On to B11, for which the binding result was “binds”.

B12: SCT-Fa104 (antibody, V domains shown)
VH: B10 VH with G66C, S84T, V93I
VL: B10 VL with I106V
notes: murine IgG
With B12, the binding result was “binds”.

B13: SCT-Fa109 (antibody, V domains shown)
VH: B10 VH with S84T, V93I, G116V
VL: B10 VL with I106V
notes: murine IgG
On to B13, for which the binding result was “binds”.

B14: SCT-Fa105 (antibody, V domains shown)
VH: B10 VH with S77N
VL: B10 VL with N42D
notes: murine IgG
Regarding B14, the binding result is on record as “binds”.

B15: SCT-Fa102 (antibody, V domains shown)
VH: B10 VH with T30N, G56N, S77N, V79A, N80Y, D103V, I105V
VL: B10 VL
notes: murine IgG
In the case of B15, the binding result is reported as “binds”.

B16: SCT-Fa100 (antibody, V domains shown)
VH: B10 VH with T30I, Y108F
VL: B10 VL
notes: murine IgG
With B16, the binding result is given as “binds”.

B17: SCT-Fa098 (antibody, V domains shown)
VH: B10 VH with T28I
VL: B10 VL with T74A, E105A, I106L
notes: murine IgG
As to B17, the binding result is recorded as “binds”.

B18: SCT-Fa110 (antibody, V domains shown)
VH: B10 VH with K19R, S84T
VL: B10 VL
notes: murine IgG
As to B18, the binding result is “binds”.

B19: SCT-Fa093 (antibody, V domains shown)
VH: B10 VH with Q3H
VL: B10 VL
notes: murine IgG
B19: the binding result was “binds”.

B20: SCT-Fa194 (antibody, V domains shown)
VH: B10 VH with K5R
VL: B10 VL with P44L
notes: murine IgG
B20: the binding result was “binds”.

B21: SCT-Fa097 (antibody, V domains shown)
VH: B10 VH with T28I, Y112H
VL: B10 VL with T20N, S60L
notes: murine IgG
With B21, the binding result is “binds”.

B22: SCT-Fa099 (antibody, V domains shown)
VH: B10 VH with T28I
VL: B10 VL
notes: murine IgG
For the molecule B22, the binding result is listed as “binds”.

B23: SCT-Fa108 (antibody, V domains shown)
VH: B10 VH with S84T, V93I
VL: B10 VL with I106V
notes: murine IgG
Regarding B23, the binding result was “binds”.

B24: SCT-Fa101 (antibody, V domains shown)
VH: B10 VH with T30I
VL: B10 VL
notes: murine IgG
For B24, the binding result is reported as “binds”.

B25: SCT-Fa106 (antibody, V domains shown)
VH: B10 VH with V79A, N80Y, D103V, I105V
VL: B10 VL with P59T
notes: murine IgG
Turning to B25, the binding result is “binds”.

B26: SCT-Fa118 (antibody, V domains shown)
VH: QVQLQQPGAELVKPGASVKLSCKASGYTFISYWMHWVKQRPGRGLEWIGRIDPNSGDTKYNEKFKSKATLTVDKPSSTAYMQLSSLISEDSAVYYCARWGWDAFAYWGQGTLVTVSA
VL: DAVMTQTPLSLPVSLGDQASISCRSSQSLENSDGNTYLNWYFQKTGQSPQLLIYRVSNRFSGVLDRFSGSGSGTDFTLKISRVEAEDLGVYFCLQVTHVPPTFGAGTKLELK
notes: murine IgG
Consider B26, for which the binding result is “binds”.

B27: SCT-Fa127 (antibody, V domains shown)
VH: QVQLQQPGAELVMPGASVKLSCKASGYTFTTYWMHWVKQRPGQGLEWIGEIDPSDGYSNYNQNFKGKATLTVDKSSSTAYLQLSSLTSEDSAVYYCARNYGSNYVGYFDYWGQGTTLTVSS
VL: DIQMTQTTSSLSASLGDRVTISCRSSQDISNYLNWYQQKPDGTVKLLIYYTSRLHSGVPSSFSGSGSGTDYSLTISNLEQEDIATYFCQQANALPWTFGGGTKLEIK
notes: murine IgG
Turning to B27, the binding result is listed as “binds”.

B28: SCT-Fa124 (antibody, V domains shown)
VH: B27 VH with T30S, G56S, S58T, L81M, Y110H, Q113R
VL: B27 VL with S25A, E79A, A91G
notes: murine IgG
For the molecule B28, the binding result is on record as “binds”.

B29: SCT-Fa122 (antibody, V domains shown)
VH: B27 VH with K23E, Y32F, M34I, G56S, S58T
VL: B27 VL with S25A, T85I
notes: murine IgG
For the molecule B29, the binding result was “binds”.

B30: SCT-Fa123 (antibody, V domains shown)
VH: B27 VH with T30N, G56S, S58T, K65N
VL: B27 VL with S25A, H55P, N92K
notes: murine IgG
B30: the binding result is listed as “binds”.

B31: SCT-Fa111 (antibody, V domains shown)
VH: QVQLKQSGPGLVQPSQSLSITCTVSGFSLISYGVHWVRQSPGKGLEWLGIIWSGGNTDYNAAFISRLSISKDNSKSQVFFKLNSLQADDTAIYYCARTANALDYWGQGTSVTVSS
VL: DVLMTQTPLSLPVSLGDQASISCRSSQTIVHSNGNTYLEWYLQKPGQSPKLLIYKVSNRFSGVPDRFSGSGSGTDFTLKISRVEAEDLGVYYCFQGSHVPWTFGGGTKLEIK
notes: murine IgG
Turning to B31, the binding result is “binds”.

B32: SCT-Fa120 (antibody, V domains shown)
VH: QVQLQQPGAELVKPGASVKVSCKASGYSFISYWMYWVKQRPGQGLEWIGRIHPSDSDTNYNQKYKGKATLTVDRSSSTAYMQLSSLTSEDSAVYYCTISHYSGSSPETYWGQGTTLTVSS
VL: B31 VL with T28S, W101Y
notes: murine IgG
Take B32: the binding result was “binds”.

B33: SCT-Fa121 (antibody, V domains shown)
VH: QVQLQQPGAELVKPGASVKVSCKASGYTFISHWMYWVRQRPGQGLEWIGRIHPSDSDTDYSQEFKGKATLTVDKSSSTAHMQLSSLTSEDSAVYYCAIWSYYYGSRLDYWGQGTTLTVSS
VL: B31 VL with T7A, L9P, T28N, K44R, F94C, W101Y
notes: murine IgG
In the case of B33, the binding result was “binds”.

B34: SCT-Fa116 (antibody, V domains shown)
VH: QVQLQQPGAELVKPGASVKLSCKASGYSFISSWMEWVKQRPGQGLEWIGRIHPSDSDTNYNQKFKAKATLTVDKSSSTAYMQLSSLTSEDSAVYYCAIIHRGFYFAMDYWGQGTSVTVSS
VL: B31 VL with T28S
notes: murine IgG
B34: the binding result is given as “binds”.

B35: SCT-Fa119 (antibody, V domains shown)
VH: B34 VH with L20V, A66G
VL: B31 VL with T28S
notes: murine IgG
With B35, the binding result is given as “binds”.

B36: SCT-Fa150 (antibody, V domains shown)
VH: B33 VH with L11V, T28S, S105T
VL: B31 VL with L9P, T28N, K44R, F94C, W101Y
notes: murine IgG
In the case of B36, the binding result was “binds”.

B37: SCT-Fa113 (antibody, V domains shown)
VH: QVQLQQPGAEFVKPGASVKLSCEASGNTFTSYWIQWVKQRPGQGLEWIGEIDPSDSYIDYNQKFKDKATLTVDTSSSTAYMHLSSLTSEDSAVYYCAREGAYSSPFAYWGQGTLVTVSA
VL: DILMTQSPSSMSVSLGDTISIICHASQDIRSNIGWLQQKPGKSFKGLIYHGSNLEDGVPSRFSGSGSGADYSLTISSLESEDFADYYCVQYIQFPRTFGGGTKVEIK
notes: murine IgG
On to B37, for which the binding result is given as “binds”.
